This note sets out measurements from PMC5415409 (Nature cell biology, 2017).

This assay concerns the target Growth Factor Receptor-bound 2 (GRB2), endogenous in HEK cells (human (endogenous in HEK), UniProt P62993 1-217). The experiment in a line: co-IP.

Growth Factor Receptor-bound 2 (GRB2), endogenous in HEK cells, sequence (P62993 whole entry): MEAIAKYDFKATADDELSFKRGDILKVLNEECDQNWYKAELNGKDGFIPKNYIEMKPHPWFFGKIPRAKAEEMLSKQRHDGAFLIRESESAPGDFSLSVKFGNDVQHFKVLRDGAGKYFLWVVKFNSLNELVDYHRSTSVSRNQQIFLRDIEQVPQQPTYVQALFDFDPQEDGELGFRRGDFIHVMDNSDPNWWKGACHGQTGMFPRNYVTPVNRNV

B1: wild-type SWELL1 (SWELL1^WT), transiently expressed in HEK cells (natural protein, UniProt Q8IWT6 1-810, looked up)
chain: MIPVTELRYFADTQPAYRILKPWWDVFTDYISIVMLMIAVFGGTLQVTQDKMICLPCKWVTKDSCNDSFRGWAAPGPEPTYPNSTILPTPDTGPTGIKYDLDRHQYNYVDAVCYENRLHWFAKYFPYLVLLHTLIFLACSNFWFKFPRTSSKLEHFVSILLKCFDSPWTTRALSETVVEESDPKPAFSKMNGSMDKKSSTVSEDVEATVPMLQRTKSRIEQGIVDRSETGVLDKKEGEQAKALFEKVKKFRTHVEEGDIVYRLYMRQTIIKVIKFILIICYTVYYVHNIKFDVDCTVDIESLTGYRTYRCAHPLATLFKILASFYISLVIFYGLICMYTLWWMLRRSLKKYSFESIREESSYSDIPDVKNDFAFMLHLIDQYDPLYSKRFAVFLSEVSENKLRQLNLNNEWTLDKLRQRLTKNAQDKLELHLFMLSGIPDTVFDLVELEVLKLELIPDVTIPPSIAQLTGLKELWLYHTAAKIEAPALAFLRENLRALHIKFTDIKEIPLWIYSLKTLEELHLTGNLSAENNRYIVIDGLRELKRLKVLRLKSNLSKLPQVVTDVGVHLQKLSINNEGTKLIVLNSLKKMANLTELELIRCDLERIPHSIFSLHNLQEIDLKDNNLKTIEEIISFQHLHRLTCLKLWYNHIAYIPIQIGNLTNLERLYLNRNKIEKIPTQLFYCRKLRYLDLSHNNLTFLPADIGLLQNLQNLAITANRIETLPPELFQCRKLRALHLGNNVLQSLPSRVGELTNLTQIELRGNRLECLPVELGECPLLKRSGLVVEEDLFNTLPPEVKERLWRADKEQA
For B1, the “densitometry ratio SWELL1/GRB2 in the GRB2 immunoprecipitate” value is 0.31.
